Source: patent US20160051695A1

Key:
[1] = biological target: human HER2 (ErbB2), human epidermal growth factor receptor 2 protein (human) (UniProt P04626); experiment: flow cytometry on SKOV-3 cells, background without primary antibody
[2] = biological target: Jurkat cells (human T leukemia cells; do not express human HER2); experiment: flow cytometry on HER2-negative Jurkat cells, background without primary antibody
[3] = biological target: human HER2 (ErbB2), human epidermal growth factor receptor 2 protein (human) (UniProt P04626); experiment: flow cytometry on JIMT-1 cells, background without primary antibody

MFI [1]: 8
MFI [2]: 9
MFI [3]: 3.29
Substance: goat F(ab')2-anti-human IgG (H+L)-RPE (Southern Biotech, Cat. No. 2043-09)
